Assay results from patent US20210070843A1.

Experiments:
[1] = biological target: full-length H1 A/California/07/2009 HA expressed on 293T cells (influenza A virus A/California/07/2009 (H1N1)); test: cell-based or functional assay
[2] = biological target: full-length H5 A/Vietnam/1203/2004 HA expressed on 293T cells (influenza A virus A/Vietnam/1203/2004 (H5N1)); test: cell-based or functional assay
[3] = biological target: H7 A/Anhui/1-BALF_RG17/2013 HA on H7N9 AH/13 pseudo virus (influenza A virus A/Anhui/1-BALF_RG17/2013 (H7N9)); test: cell-based or functional assay
[4] = biological target: cell surface-expressed H3N2 WN/05 HA trimer (influenza A virus A/Wisconsin/67/2005 (H3N2)); test: cell-based or functional assay
[5] = biological target: recombinant H5N1 VN/04 HA trimer (hemagglutinin ectodomain of A/Vietnam/1203/2004) (influenza A virus A/Vietnam/1203/2004 (H5N1)); test: ELISA, coated HA
[6] = biological target: full-length H1 A/California/07/2009 HA expressed on 293T cells (influenza A virus A/California/07/2009 (H1N1)); test: flow cytometry, HA-expressing 293T
[7] = biological target: full-length H5 A/Vietnam/1203/2004 HA expressed on 293T cells (influenza A virus A/Vietnam/1203/2004 (H5N1)); test: flow cytometry, HA-expressing 293T
[8] = biological target: cell surface-expressed H3N2 WN/05 HA trimer (influenza A virus A/Wisconsin/67/2005 (H3N2)); test: flow cytometry, HA-expressing 293T

| Binder | IC50 of pseudo virus neutralization H1N1 CA/09 [1] [µg/mL] | IC50 of true virus neutralization H1N1 CA/09 [1] [µg/mL] | IC50 of pseudo virus neutralization H5N1 VN/04 [2] [µg/mL] | IC50 of pseudo virus neutralization H7N9 AH/13 [3] [µg/mL] | IC50 of pseudo virus neutralization H3N2 WN/05 [4] [µg/mL] | EC50 [5] [µg/mL] | EC50 [6] [µg/mL] | max. MFI [6] [MFI] | max. MFI [7] [MFI] | max. MFI [8] [MFI] | EC50 [7] [µg/mL] | EC50 [8] [µg/mL] |
| --- | --- | --- | --- | --- | --- | --- | --- | --- | --- | --- | --- | --- |
| S06 (antibody, V domains shown) VH: EVQLVESGGGLVQPGGSLRLSCAASGFTIGGGWIHWVRQAPGKGLEWVAFIGPYGGSTFYADSVKGRFTISADTSKNTAYLQMNSLRAEDTAVYYCARFNFGFWNHMDYWGQGTLVTVSS VL: DIQMTQSPSSLSASVGDRVTITCRASQDVSSWVAWYQQKPGKAPKLLIYGTTFLHSGVPSRFSGSGSGTDFTLTISSLQPEDFATYYCQQYYNGPLTFGQGTKVEIKR | > 100 | > 500 | > 200 | > 200 | > 20 | 0.311 | 3.98 | 1650 | 249 | 135 |  |  |
| S10 (antibody, V domains shown) VH: EVQLVESGGGLVQPGGSLRLSCAASGFTIGGYGIHWVRQAPGKGLEWVASIGPSWGFTFYADSVKGRFTISADTSKNTAYLQMNSLRAEDTAVYYCARFNWVINGVTDYWGQGTLVTVSS VL: DIQMTQSPSSLSASVGDRVTITCRASQDVSYYVAWYQQKPGKAPKLLIFWSTFLYSGVPSRFSGSGSGTDFTLTISSLQPEDFATYYCQQYYDSPMTFGQGTKVEIKR | 0.349 | 1560 | 0.267 | > 200 | > 20 | 0.259 | 3.38 | 10700 | 1100 | 511 | 0.79 | 7.86 |
| S11 (antibody, V domains shown) VH: EVQLVESGGGLVQPGGSLRLSCAASGFTIDNGGIHWVRQAPGKGLEWVAWIGPYGGSTSYADSVKGRFTISADTSKNTAYLQMNSLRAEDTAVYYCARFGFGLHDLMDYWGQGTLVTVSS VL: DIQMTQSPSSLSASVGDRVTITCRASQDVYSWVAWYQQKPGKAPKLLIYYSSFLYSGVPSRFSGSGSGTDFTLTISSLQPEDFATYYCQQYYNGPLTFGQGTKVEIKR | > 100 | > 500 | > 200 | > 200 | > 20 | 0.0781 | 4.07 | 5600 | 434 | 207 |  |  |
| S29 (antibody, V domains shown) VH: EVQLVESGGGLVQPGGSLRLSCAASGFTISDYWIHWVRQAPGKGLEWVASIWPSGGYTYYADSVKGRFTISADTSKNTAYLQMNSLRAEDTAVYYCARFNWIVGHYMDYWGQGTLVTVSS VL: DIQMTQSPSSLSASVGDRVTITCRASQDVFGGVAWYQQKPGKAPKLLIYWSSWLYSGVPSRFSGSGSGTDFTLTISSLQPEDFATYYCQQYYDGPITFGQGTKVEIKR | 0.672 | > 500 | > 200 | > 200 | > 20 | > 10 | 4.22 | 6280 | 367 | 188 |  |  |
| S45 (antibody, V domains shown) VH: EVQLVESGGGLVQPGGSLRLSCAASGFTINGSSIHWVRQAPGKGLEWVAYIGPFGGSTYYADSVKGRFTISADTSKNTAYLQMNSLRAEDTAVYYCARFWHGYNLYMDYWGQGTLVTVSS VL: DIQMTQSPSSLSASVGDRVTITCRASQDVGWWVAWYQQKPGKAPKLLIYGARFLYSGVPSRFSGSGSGTDFTLTISSLQPEDFATYYCQQYFNGPLTFGQGTKVEIKR | > 100 | > 500 | > 200 | > 200 | > 20 | 0.23 | 4.47 | 2470 | 451 | 529 |  | 15.8 |
